The record followed here is publication PMC3384344 (Nucleic Acids Research, 2012).

The target in series [1] is DNA polymerase III α subunit, wild-type full-length (E. coli) (UniProt P10443). In words: other fluorescence titration.
The target in series [2] is T1, DNA polymerase III α subunit truncation α1–280 (E. coli, UniProt P10443 1-280). In words: other fluorescence titration.
The target of series [3] is T2, DNA polymerase III α subunit, wild-type full-length (E. coli, UniProt P10443 1-1160). In words: other fluorescence titration.
T2 sequence (P10443 whole entry, the tested form may be a part): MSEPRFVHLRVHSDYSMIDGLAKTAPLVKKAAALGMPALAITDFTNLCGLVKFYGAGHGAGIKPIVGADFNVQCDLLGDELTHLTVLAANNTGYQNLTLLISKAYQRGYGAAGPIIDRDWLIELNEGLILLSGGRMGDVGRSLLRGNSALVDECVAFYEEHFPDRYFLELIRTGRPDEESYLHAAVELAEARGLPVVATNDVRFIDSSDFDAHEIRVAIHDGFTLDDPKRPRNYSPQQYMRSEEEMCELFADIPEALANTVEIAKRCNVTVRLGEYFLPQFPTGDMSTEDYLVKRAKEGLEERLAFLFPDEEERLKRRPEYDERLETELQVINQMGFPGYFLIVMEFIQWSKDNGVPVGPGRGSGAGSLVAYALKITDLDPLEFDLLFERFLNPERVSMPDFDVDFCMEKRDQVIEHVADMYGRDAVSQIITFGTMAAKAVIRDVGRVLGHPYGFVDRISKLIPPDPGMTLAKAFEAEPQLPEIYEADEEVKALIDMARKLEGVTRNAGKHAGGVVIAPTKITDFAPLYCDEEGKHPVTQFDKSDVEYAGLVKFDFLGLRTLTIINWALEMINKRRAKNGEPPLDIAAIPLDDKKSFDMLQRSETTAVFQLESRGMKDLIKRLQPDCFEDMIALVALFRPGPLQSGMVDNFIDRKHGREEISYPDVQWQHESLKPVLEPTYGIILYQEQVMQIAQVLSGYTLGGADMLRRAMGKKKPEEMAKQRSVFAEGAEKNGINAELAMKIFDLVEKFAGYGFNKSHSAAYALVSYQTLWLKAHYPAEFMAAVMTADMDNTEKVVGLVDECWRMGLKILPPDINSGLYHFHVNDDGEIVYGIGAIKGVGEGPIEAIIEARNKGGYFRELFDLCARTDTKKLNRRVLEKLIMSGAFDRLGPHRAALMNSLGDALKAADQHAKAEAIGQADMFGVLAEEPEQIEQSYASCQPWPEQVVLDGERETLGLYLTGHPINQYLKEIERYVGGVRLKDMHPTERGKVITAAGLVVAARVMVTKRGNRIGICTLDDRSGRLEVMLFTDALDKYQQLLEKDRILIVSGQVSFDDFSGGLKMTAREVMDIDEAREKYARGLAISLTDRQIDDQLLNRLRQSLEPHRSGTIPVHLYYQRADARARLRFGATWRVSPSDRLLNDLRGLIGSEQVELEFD
The target in series [4] is DNA polymerase III α subunit truncation α917–1160 (E. coli, UniProt P10443 917-1160). In words: other fluorescence titration.
Sequence of DNA polymerase III α subunit truncation α917–1160 (P10443 917-1160): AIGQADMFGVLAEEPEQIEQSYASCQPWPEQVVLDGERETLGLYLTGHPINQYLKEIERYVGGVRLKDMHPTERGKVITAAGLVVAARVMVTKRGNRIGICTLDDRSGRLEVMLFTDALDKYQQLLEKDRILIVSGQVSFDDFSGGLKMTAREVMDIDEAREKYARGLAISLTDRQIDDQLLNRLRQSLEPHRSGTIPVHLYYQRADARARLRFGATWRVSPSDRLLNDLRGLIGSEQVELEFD
Series [5] addresses T1, DNA polymerase III α subunit truncation …. In words: cell-based or functional assay.
Series [6] addresses DNA polymerase III α subunit truncation α1–956 (E. coli, UniProt P10443 1-956). In words: other fluorescence titration.
For series [7], the target named is DNA polymerase III α subunit truncation α1–975 (E. coli, UniProt P10443 1-975). In words: other fluorescence titration.
Sequence of DNA polymerase III α subunit truncation α1–975 (P10443 1-975): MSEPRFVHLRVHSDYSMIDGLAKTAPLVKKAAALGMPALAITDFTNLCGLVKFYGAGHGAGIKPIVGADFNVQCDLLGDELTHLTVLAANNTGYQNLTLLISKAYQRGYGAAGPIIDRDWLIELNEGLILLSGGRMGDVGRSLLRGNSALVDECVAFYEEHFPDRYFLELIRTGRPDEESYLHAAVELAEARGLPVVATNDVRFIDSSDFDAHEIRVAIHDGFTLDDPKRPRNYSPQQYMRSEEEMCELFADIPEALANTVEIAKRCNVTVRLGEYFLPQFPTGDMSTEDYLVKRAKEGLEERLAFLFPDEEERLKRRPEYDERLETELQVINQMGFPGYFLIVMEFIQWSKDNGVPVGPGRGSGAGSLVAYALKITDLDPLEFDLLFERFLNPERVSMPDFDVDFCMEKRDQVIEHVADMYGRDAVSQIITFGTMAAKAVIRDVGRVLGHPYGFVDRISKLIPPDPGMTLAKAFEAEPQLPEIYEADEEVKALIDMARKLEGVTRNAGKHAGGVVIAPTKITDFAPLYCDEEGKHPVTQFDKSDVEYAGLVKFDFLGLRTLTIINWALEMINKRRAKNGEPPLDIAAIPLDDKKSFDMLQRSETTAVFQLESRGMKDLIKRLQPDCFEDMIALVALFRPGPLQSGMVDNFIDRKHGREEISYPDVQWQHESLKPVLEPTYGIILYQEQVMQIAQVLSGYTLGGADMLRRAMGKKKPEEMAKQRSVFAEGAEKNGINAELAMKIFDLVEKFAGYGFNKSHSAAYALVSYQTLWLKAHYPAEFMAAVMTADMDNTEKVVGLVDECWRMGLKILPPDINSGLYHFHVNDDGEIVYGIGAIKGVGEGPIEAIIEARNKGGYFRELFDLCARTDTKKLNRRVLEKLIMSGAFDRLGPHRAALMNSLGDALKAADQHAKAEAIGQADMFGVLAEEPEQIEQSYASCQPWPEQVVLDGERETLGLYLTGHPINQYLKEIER
Series [8] concerns the target T2, DNA polymerase III α subunit, wild-type …. In words: other fluorescence titration. This is another data set of the same source.
Series [9] deals with the molecule itself. In words: cross-linking.

Where two headings read alike, the source gives them in different places.

T1 sequence (P10443 1-280): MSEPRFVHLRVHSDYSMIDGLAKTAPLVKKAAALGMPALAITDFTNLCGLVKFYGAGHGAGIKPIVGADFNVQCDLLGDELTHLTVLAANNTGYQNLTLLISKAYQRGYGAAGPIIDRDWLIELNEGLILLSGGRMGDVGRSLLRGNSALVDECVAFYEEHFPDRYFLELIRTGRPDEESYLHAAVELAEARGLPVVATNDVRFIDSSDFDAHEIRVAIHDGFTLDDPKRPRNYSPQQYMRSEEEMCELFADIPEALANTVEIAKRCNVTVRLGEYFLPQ
Sequence of DNA polymerase III α subunit, wild-type full-length (E. coli) (P10443 whole entry, the tested form may be a part): as the sequence (P10443 whole entry, the tested form may be a part) above
Sequence of DNA polymerase III α subunit truncation α1–956 (P10443 1-956): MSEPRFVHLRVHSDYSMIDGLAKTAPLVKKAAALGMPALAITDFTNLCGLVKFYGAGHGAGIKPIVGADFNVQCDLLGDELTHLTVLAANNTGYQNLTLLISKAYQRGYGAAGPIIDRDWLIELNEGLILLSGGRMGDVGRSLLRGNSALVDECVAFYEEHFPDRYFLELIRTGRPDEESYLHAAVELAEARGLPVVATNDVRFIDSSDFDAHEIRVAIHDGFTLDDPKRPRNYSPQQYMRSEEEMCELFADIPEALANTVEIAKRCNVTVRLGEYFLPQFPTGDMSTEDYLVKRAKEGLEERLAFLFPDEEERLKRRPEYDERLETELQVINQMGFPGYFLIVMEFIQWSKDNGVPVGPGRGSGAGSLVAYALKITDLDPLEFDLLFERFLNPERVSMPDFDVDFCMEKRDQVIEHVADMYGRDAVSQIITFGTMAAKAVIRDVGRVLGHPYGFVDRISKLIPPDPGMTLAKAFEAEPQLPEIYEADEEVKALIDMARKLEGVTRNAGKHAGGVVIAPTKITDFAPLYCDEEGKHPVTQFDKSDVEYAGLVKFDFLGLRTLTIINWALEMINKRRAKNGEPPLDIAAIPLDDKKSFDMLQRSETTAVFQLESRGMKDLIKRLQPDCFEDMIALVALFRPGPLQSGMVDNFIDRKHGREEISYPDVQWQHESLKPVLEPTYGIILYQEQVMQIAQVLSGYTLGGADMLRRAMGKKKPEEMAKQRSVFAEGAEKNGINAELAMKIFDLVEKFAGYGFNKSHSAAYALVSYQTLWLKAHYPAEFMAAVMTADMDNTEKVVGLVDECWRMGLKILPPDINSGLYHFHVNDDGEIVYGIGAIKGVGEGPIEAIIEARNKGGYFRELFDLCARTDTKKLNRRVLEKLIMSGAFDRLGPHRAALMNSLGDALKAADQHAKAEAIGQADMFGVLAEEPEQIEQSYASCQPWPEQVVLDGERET

As usually defined, the Kd is the concentration at which binding is half-saturated. The molecule “1:1 mixture of UmuD-S60A and UmuD′-S60A (from UniProt P0AG11) (complex)” came in with a Kd in [1] of 4.6 µM.

B1: UmuD′, cleaved form of UmuD (homodimer UmuD′2) (natural protein)
chain: GFPSPAADYVEQRIDLNQLLIQHPSATYFVKASGDSMIDGGISDGDLLIVDSAITASHGDIVIAAVDGEFTVKKLQLRPTVQLIPMNSAYSPITISSEDTLDVFGVVIHVVKAMR
B1: the Kd in series [2] turned out to be 8.6 ± 1 µM; in [3] it was 10.9 ± 1.6 µM; in [4] it was 3.8 ± 0.9 µM.

B2: UmuD, wild-type full-length (homodimer UmuD2) (natural protein)
chain: MLFIKPADLREIVTFPLFSDLVQCGFPSPAADYVEQRIDLNQLLIQHPSATYFVKASGDSMIDGGISDGDLLIVDSAITASHGDIVIAAVDGEFTVKKLQLRPTVQLIPMNSAYSPITISSEDTLDVFGVVIHVVKAMR
As for B2, the “RecA/ssDNA-facilitated UmuD cleavage at 30°C with 0–40 µM α1–280” value in series [5] is ~4 fold more α1–280 than wild-type α. The Kd in series [6] was found to be 14.7 ± 1.9 µM; in series [7] it was 3.1 ± 1 µM; in series [2], 7.3 ± 1.4 µM; in series [3], 1.1 ± 0.6 µM; in series [4], 13.9 ± 5.1 µM; in series [8], 21.7 ± 11.7 µM.

B3: UmuD3A (UmuD containing the triple mutation T14A, L17A and F18A) (natural protein)
chain: MLFIKPADLREIVAFPAASDLVQCGFPSPAADYVEQRIDLNQLLIQHPSATYFVKASGDSMIDGGISDGDLLIVDSAITASHGDIVIAAVDGEFTVKKLQLRPTVQLIPMNSAYSPITISSEDTLDVFGVVIHVVKAMR
Turning to B3, the Kd in [2] turned out to be 9.3 ± 3.2 µM; in series [3] it was 8.7 ± 1.5 µM; in series [4], 3.4 ± 1 µM.

B4: UmuD-S60A, non-cleavable full-length UmuD variant (natural protein)
chain: MLFIKPADLREIVTFPLFSDLVQCGFPSPAADYVEQRIDLNQLLIQHPSATYFVKASGDAMIDGGISDGDLLIVDSAITASHGDIVIAAVDGEFTVKKLQLRPTVQLIPMNSAYSPITISSEDTLDVFGVVIHVVKAMR
With B4, in series [9], the binding result is recorded as “binds”. The figures for the Kd in [2], in series [3] and in series [4] were 10.3 ± 4.3 µM, 10.6 ± 2.9 µM and 0.7 ± 0.3 µM, respectively.
